Where “and” joins values, the source holds several entries; their conditions need not be identical. Equal values may be shown once.
Key:
[1] = molecular target: T1, HydF (TmHydF) (Thermotoga maritima, UniProt Q9WYS6); test: in vitro reconstitution; spectroscopy; GEMMA; format: binding; conditions: anaerobic reconstitution of apo-protein
T1 construct: gene TM_0445; full length, expressed in E. coli Rosetta (II), heat step and phenyl-Sepharose; about 45 kDa; mainly dimer, some tetramer; apo-form reconstituted with [4Fe-4S]
T1 sequence (Q9WYS6 1-404): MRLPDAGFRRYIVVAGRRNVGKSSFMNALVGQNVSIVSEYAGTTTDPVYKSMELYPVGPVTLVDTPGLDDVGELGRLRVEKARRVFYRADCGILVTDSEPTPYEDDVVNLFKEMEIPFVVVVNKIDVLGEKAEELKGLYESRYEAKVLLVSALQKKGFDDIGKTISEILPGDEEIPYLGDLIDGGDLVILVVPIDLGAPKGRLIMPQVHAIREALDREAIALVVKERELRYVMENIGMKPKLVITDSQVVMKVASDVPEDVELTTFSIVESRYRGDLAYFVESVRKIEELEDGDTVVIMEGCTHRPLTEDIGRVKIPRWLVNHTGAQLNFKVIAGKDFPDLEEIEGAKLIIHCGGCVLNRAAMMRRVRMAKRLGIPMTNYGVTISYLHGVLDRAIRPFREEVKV

[2] = molecular target: T2, HydA1 (CrHydA1) (Chlamydomonas reinhardtii, UniProt Q9FYU1); test: in vitro reconstitution; spectroscopy; GEMMA; format: binding; conditions: anaerobic reconstitution of apo-protein
T2 construct: gene hyd1; His-tagged, purified recombinant; theoretical mass 49 kDa; monomer; apo-form reconstituted to [4Fe-4S]-HydA1
T2 sequence (Q9FYU1 56-497): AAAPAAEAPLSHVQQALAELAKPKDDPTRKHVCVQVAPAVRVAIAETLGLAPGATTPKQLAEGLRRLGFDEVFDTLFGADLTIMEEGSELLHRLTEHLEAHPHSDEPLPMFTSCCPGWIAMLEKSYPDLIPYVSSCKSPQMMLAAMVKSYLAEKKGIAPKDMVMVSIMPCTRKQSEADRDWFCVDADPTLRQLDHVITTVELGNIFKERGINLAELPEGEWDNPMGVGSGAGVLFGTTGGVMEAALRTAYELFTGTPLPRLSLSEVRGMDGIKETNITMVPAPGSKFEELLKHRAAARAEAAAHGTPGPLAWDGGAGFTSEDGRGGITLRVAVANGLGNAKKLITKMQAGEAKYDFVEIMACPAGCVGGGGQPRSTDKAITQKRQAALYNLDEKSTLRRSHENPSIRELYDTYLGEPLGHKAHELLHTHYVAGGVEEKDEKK

[3] = molecular target: HydF from Thermotoga maritima (Thermotoga maritima); test: GEMMA (gas-phase electrophoretic macromolecule analysis); isolated HydF or HydA1, each as apo, [4Fe4S] and holo form; 0.02 µg/µl protein in 20 mM ammonium acetate, 0.005% Tween-20
[4] = molecular target: HydF from Thermotoga maritima (Thermotoga maritima); test: GEMMA (gas-phase electrophoretic macromolecule analysis); mixtures of metal-free apo-HydF with HydA1 (apo, [4Fe4S] or holo); 0.02 µg/µl each protein in 20 mM ammonium acetate, 0.005% Tween-20
[5] = molecular target: HydA1 [FeFe] hydrogenase from Chlamydomonas reinhardtii (Chlamydomonas reinhardtii); test: GEMMA (gas-phase electrophoretic macromolecule analysis); mixtures of metal-loaded HydF ([4Fe-4S]-HydF or holo-HydF) with HydA1 (apo, [4Fe4S] or holo); 0.02 µg/µl each protein in 20 mM ammonium acetate, 0.005% Tween-20
[6] = molecular target: HydF from Thermotoga maritima (Thermotoga maritima); test: as above
[7] = molecular target: HydF from Thermotoga maritima (Thermotoga maritima); test: SEC + other: GEMMA (gas-phase electrophoretic macromolecule analysis); fraction P1 (63 ml) of apo-HydF from Superdex-200 (50 mM Tris-HCl pH 8.0, 150 mM NaCl), then wide-scan GEMMA at 0.02 µg/µl protein in 20 mM ammonium acetate, 0.005% Tween 20; 1 mM DTT added to samples
[8] = molecular target: HydF from Thermotoga maritima (Thermotoga maritima); test: SEC + other: GEMMA (gas-phase electrophoretic macromolecule analysis); fractions P2 of apo-HydF (70 ml) and apo-HydA1 (75 ml) from Superdex-200 (50 mM Tris-HCl pH 8.0, 150 mM NaCl), then wide-scan GEMMA at 0.02 µg/µl protein in 20 mM ammonium acetate, 0.005% Tween 20; 1 mM DTT added to samples

Compound	in vitro reconstitution; spectroscopy; GEMMA [1]	in vitro reconstitution; spectroscopy; GEMMA [2]	stoichiometry N [3]	stoichiometry N [4]	stoichiometry N (HydF per HydA1) [5]	stoichiometry N [6]	stoichiometry N [7]	stoichiometry N [8]
[S]12[Fe]3[S]4[Fe]1[S]1[Fe]2[S]3[Fe]41 [[4Fe-4S] cluster]	The [4Fe4S] clusters in apo-HydA1, apo-HydF, and the truncated HydF apo-proteins were reconstituted	The [4Fe4S] clusters in apo-HydA1, apo-HydF, and the truncated HydF apo-proteins were reconstituted	–	–	–	–	–	–
HydF from Thermotoga maritima (natural protein)	–	–	2 and 4 and > 6	2 and 4	2	2 and 4	4 and 2 and 6	2
